Data from the nanobody polyreactivity screen of Harvey et al. (2022).

Assay: yeast display, Sf9 membrane polyspecificity reagent, FACS + sequencing; frameworks hold sequencing errors
How it was run: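 Nanobodies from a synthetic yeast display library (Saccharomyces cerevisiae BJ5465), induced 36–48 hours with galactose, were stained 1 hour at 4 °C with 10% biotinylated, detergent-solubilized Sf9 membrane reagent, enriched on streptavidin microbeads, then FACS-sorted. Anti-HA (expression) and streptavidin (reagent binding) fluorescence set low and high (top ~1%) gates. Polyreactivity labels come from the gate of origin. Genes were colony-PCR amplified, MiSeq 2 × 250 sequenced and filtered by CDR length.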

Row | Sequence | polyreactivity (PSR sort gate)
1 | QVQLVESGGGLVQAGGSLRLSCAASGSTFAYYAMGWYRQAPGKERELVAAITSSGGSTYYADSVKGRFTISRDKAKNTVYLQMNSLKPEDTAVYYCNARYRRKSWRPFDYWGQGTQVTVSS | high polyreactivity
2 | QVQLVESGGGLVQAGGSLRLSCAASGSTFAYYVMGWYRQAPGKERELVAAISRGGRTYYADSVKGRFTISRDNAKNTVYLQMNSLKPEDTAVSYCAKPYHQRSAKVDYWGQGTQVTVSS | low polyreactivity
3 | QVQLVESGGGLVQAGGSLRLSCAASGSTFAYYVMGWYRQAPGKERELVAAITSSGGRTYYADSVKGRFTISRDNAKNTVYLQMNSLKPEDTAVYYCAKVSQRRVDNSDYDYWGQGTQVTVSS | high polyreactivity
4 | QVQLVESGGGLVQAGGSLRLSCAASGSTFCGYAMGWYRQAPGKERELVAAITNGGSTYADSVKGRFTISRDNAKNTVYLQMNSLKPEDTAVYYCNTETGPSPVPVYDTEVDSWGQRTQVTVSS | low polyreactivity
5 | QVQLVESGGGLVQAGGSLRLSCAASGSTFCYSVMGWYRQEPRTEREFVAAISTRGDSTYYADSVKGRFTLSRDNAKNTVYLQMNSLKPEDTAVYYCAKSRQSCGRVRLDYWGQGTQVTVSS | low polyreactivity
6 | QVQLVESGGGLVQAGGSLRLSCAASGSTFDANTMGWYRQAPGKERELVAAISSNGGRTYYADSVKGRFTISRDNAKNTVYLQMNSLKPEDTAVYYCAATSYYRYRETYDYWGQGTQVTVSS | high polyreactivity
7 | QVQLVESGGGLVQAGGSLRLSCAASGSTFDAYAMGLYRQAPGKERELVAAITNAGSTNYADSVKGRFTISRDNAKNTVYLQMNSLKPEDTAVYYCATDWYHRYLDGRYDYWGQGTQVTVSS | low polyreactivity
8 | QVQLVESGGGLVQAGGSLRLSCAASGSTFDAYDMGWYRQAPGTERELVADINWSGGITYYADSVKGRFRISRDNAKNTVYLQMNSLKPEDTAVYYCNADASFYSRVNYWGQGTQVTVSS | high polyreactivity
9 | QVQLVESGGGLVQAGGSLRLSCAASGSTFDDNAMGWYRQAPGKERELVAGISTNGGSTSYADSVKGRFTISRDNAKNTVYLQMNSLKPEDTAVYYCAKGMYVQFDYWGQGTQVTVSS | low polyreactivity
10 | QVQLVESGGGLVQAGGSLRLSCAASGSTFDDNAMGWYRQAPGKERELVASITYRGGSTYYADSVKGRFTISRDNAKNTVYLQMNSLKPEDTAVYYCNADYTGAEYDYWGQGTQVTVSS | low polyreactivity
11 | QVQLVESGGGLVQAGGSLRLSCAASGSTFDFNAMGWYRQAPGKERELVAAITGSGGSTDYADSVKGRFTISRDNAKNTVYLQMNSMKPEDTAVYYCNAGKTIDYRDGVGYDHWGQGTQVTVSS | low polyreactivity
12 | QVQLVESGGGLVQAGGSLRLSCAASGSTFDFNAMGWYRQAPGKERELVAAITYSAGSTYSADSVKGRFTISRDNAQNTVDLQMNSLKPEDTAVYYCAAEDVYPGSIDMDDWGQGTQVTVSS | low polyreactivity
13 | QVQLVESGGGLVQAGGSLRLSCAASGSTFDGNAKGWYRQAPGKERELVATINSGSSTNYADSVKGRFTISRDNAKNTVYLQMISLKPEDTAVFYCNVDSGSDSLVYSVRYNYWGQGTQVTVSS | low polyreactivity
14 | QVQLVESGGGLVQAGGSLRLSCAASGSTFDGNAMGWYRQAPGKERELVATINSDDSKNYADSVKGRFTISRDNAKNTVYLQMNSLKPEDTAVYYCAARLYVTPILSYVERYTNDYWGQGTQVTVSS | low polyreactivity
15 | QVQLVESGGGLVQAGGSLRLSCAASGSTFDGNTMGWYRQAPGKERELVAAISGSGGSTYYADSVKGRFTISRDNAKKTVYLQMNSLKPEDTAVYYCAARRIHTTSSRGYYWGQGTQVTVSS | high polyreactivity
16 | QVQLVESGGGLVQAGGSLRLSCAASGSTFDGYAMGWYRQAPGKERELVAAISRSGGRTYNADSVKGRFTISRDYAKNTVYLQMNSLKPEDTAVYYCAAYKPRPQYTDDDYWGQGTQVTVSS | high polyreactivity

Row | Sequence | polyreactivity (PSR sort gate)
17 | QVQLVESGGGLVQAGGSLRLSCAASGSTFDHYTMGWYRQAPGKERELVAAINRIGDSTYYADSVKGRCTISRDNAKNTVYLQMTSLKPEDTAVYYCNTVSLSLRFDYWGQGTQVTVSS | high polyreactivity
18 | QVQLVESGGGLVQAGGSLRLSCAASGSTFDIYALGWDRQAPGKEREMVAVISGGDGSTYYADSVKGRFTISRDNEKNTVYLQMNSLKPEETAVYYFAADRGTVSYLYSPRAVDYWGQGTQVTVSS | low polyreactivity
19 | QVQLVESGGGLVQAGGSLRLSCAASGSTFDIYAMGWYRQAPGKERELVAAISVSDVDTYYADSVKGRFTISRDNAKNTVYLQMNSLKPEDTAVYYCNAERFWPWDYDYWGQGTQVTVSS | high polyreactivity
20 | QVQLVESGGGLVQAGGSLRLSCAASGSTFDIYAMGWYRQAPGKERELVAAITFSGGSTYADSVKGRFTISRDNAKNTVYLQMNSLKPEDTAVYYCAVDGGEFSSYGYWGQGTQVTVSS | low polyreactivity
21 | QVQLVESGGGLVQAGGSLRLSCAASGSTFDKNAMGWYRQAPGKERELVAAITWRGGRTYYADSVKGRFPISRDNAKNTVYLQMNSLKPEDTAVYYCNKVSWEQMDYWGQGTQVTVSS | low polyreactivity
22 | QVQLVESGGGLVQAGGSLRLSCAASGSTFDKYTMGWYRQAPGKDRELVAAISWSGGSTYASSVKGRFTMSRDNAKNTVYLQMTCLKPEDTAVYSCAARYRNYDLWLGNRRGSYYSWGQGTQVTVSS | high polyreactivity
23 | QVQLVESGGGLVQAGGSLRLSCAASGSTFDLYAMGWYRQAPGKERELVAAISSSGGRTYYADAVKGRFTISRDNAKNTVYLQMNSLKPEDTAVYDCAAVGYKYSRYDYWGQGTQVTVSS | high polyreactivity
24 | QVQLVESGGGLVQAGGSLRLSCAASGSTFDPNAMGWYRQAPGKERELVAVIDSGDGTTYYADSVKGRFTISRDNAKNTVYLQMNSLKPEDTAVYYCAVDESTSYYDDHEDYWGQGTQVTVSS | low polyreactivity
25 | QVQLVESGGGLVQAGGSLRLSCAASGSTFDPNTKGWYRQAPGKERELVATITSVDSTNYADSVKGRFTISRDNANNTVYLQMNSLKTEDTAVYYCNADFVRVFFYAYDYWGQGTQVTVSS | low polyreactivity
26 | QVQLVESGGGLVQAGGSLRLSCAASGSTFDPNVMGWYRQAPGKERELVAVITTTGVSTYYADSVKGRFTISRDNAKNTVYLQMNSLKPEDTAVYYCNAKWYWYLTRDAYRYRYTYDYWGQGTQVTVSS | low polyreactivity
27 | QVQLVESGGGLVQAGGSLRLSCAASGSTFDPYAMGWYRQAPGKERELVAAITGGGSTNYADSVKGRFTISRDNAKNTVYLQMNSLKPEDTAVYYCAATIPKPYHSGLRLLGQGTQVTVSS | low polyreactivity
28 | QVQLVESGGGLVQAGGSLRLSCAASGSTFDPYAMGWYRQAPGKERELVATITYSGGRTYYADSVKGRFTISRDNAKNTVYLQMNSLKPEDTAVYYCAARVYTHYREFDYWGQGTQVTVSS | low polyreactivity
29 | QVQLVESGGGLVQAGGSLRLSCAASGSTFDPYAMGWYRQAPGKESELVAAISRNGGRTYYADSVKGRFTISRDNAKNTVYLQMNSLTPEDTAVYYCAARSTGYGSTGRLLWYGHWGQGTQGTVSS | high polyreactivity
30 | QVQLVESGGGLVQAGGSLRLSCAASGSTFDRNAMGWYRQAPGKERELVAAINWRGGSTYYADSVKGRFTISRDNAKNTVYLQMNSLKPEDTAVYYCAKRQYSSDGRGFGYWGQVTQVTVSS | high polyreactivity
31 | QVQLVESGGGLVQAGGSLRLSCAASGSTFDRNAMGWYRQAPGKERELVAAISRRGGRTYYADSVKGRFTISRDNAKNTVYLQMNSLKPEDTAVYYCAAGKITFPMDYWGQGTQVTVSS | high polyreactivity
